Measurements: patent US20070174009A1, “Methods and systems for analyzing a network of biological functions” (National Institute Of Advanced Industrial Science And …, priority 2004, published 2007)

Experiments:
[1] = tested on: human neuroblastoma SHSY5Y; experiment: Marker enzyme expression (ChAT, TH) in the presence of each ligand of the receptor tyrosine kinase; assay type: cell-based; details: SHSY5Y cells, ChAT vs TH, beta-actin control, FIG. 19
Description: Cholinergic neuron-like cells were identified by using anti-choline acetyltransferase antibody, and dopaminergic neuron-like cells were identified by using anti-tyrosine hydroxylase antibody, both of which are available from Clontech.
Next, the marker enzyme expression in the presence of each ligand of the receptor tyrosine kinase has been studied.

[2] = tested on: human neuroblastoma SHSY5Y; experiment: Differentiation (neuritegenesis) of SH-SY5Y cells by RA or NGF; assay type: cell-based; details: SH-SY5Y culture with RA or NGF added, FIG. 13
Procedure: Human neuroblastoma (SHSY5Y) cells were maintained in Eagle's minimum essential medium (EMEM) supplemented with 10% (v/v) foetal bovine serum (FBS), 2% (v/v) glutamine and 1% (v/v) penicillin/streptomycin (10% medium), hereafter referred to as growth medium. Cells were incubated at 37° C. in a humidified atmosphere of 5% carbon dioxide.
Differentiation has been performed according to Yamada Y. et al., Neurosci Lett. 2004 Jun. 24; 364(1):11-15. Briefly, 100 ng/ml of NGF or […] of retinoic acid was added to the culture medium differentiate the SHSY5Y cells. Usually, when retinoic acid is added, the cell differentiates into cholinergic neuron-like cell as exemplified in FIG. 13. When NGF is added, the cell differentiates into dopaminergic neuron-like cells as exemplified in FIG. 13.

Marker enzyme expression (ChAT, TH) in the presence of ligand [1] | Molecule | Differentiation of SH-SY5Y cells [2]
cholinergic | FGF2: ligand of receptor tyrosine kinase FGFR2 [reference compound] | –
dopaminergic | Ephrin B2: ligand of receptor tyrosine kinases EPHB1, EPHB2, EPHB3 (protein, UniProt P52799 28-333, looked up) Ephrin-B2: IVLEPIYWNSSNSKFLPGQGLVLYPQIGDKLDIICPKVDSKTVGQYEYYKVYMVDKDQADRCTIKKENTPLLNCAKPDQDIKFTIKFQEFSPNLWGLEFQKNKDYYIISTSNGSLEGLDNQEGGVCQTRAMKILMKVGQDASSAGSTRNKDPTRRPELEAGTNGRSSTTSPFVKPNPGSSTDGNSAGHSGNNILGSEVALFAGIASGCIIFIVIIITLVVLLLKYRRRHRKHSPQHTTTLSLSTLATPKRSGNNNGSEPSDIIIPLRTADSVFCPHYEKVSGDYGHPVYIVQEMPPQSPANIYYKV | –
dopaminergic | NGF: NGF (Sigma 2.5 S #N-6009) (protein, UniProt P01139 122-241, looked up, 2.5S NGF) Beta-nerve growth factor: SSTHPVFHMGEFSVCDSVSVWVGDKTTATDIKGKEVTVLAEVNINNSVFRQYFFETKCRASNPVESGCRGIDSKHWNSYCTTTHTFVKALTTDEKQAAWRFIRIDTACVCVLSRKATRRG | differentiated into doperminergia neuron-like cells
dopaminergic | BDNF: ligand of receptor tyrosine kinase NTRK2 (protein, UniProt P23560 19-247, looked up) Neurotrophic factor BDNF …: APMKEANIRGQGGLAYPGVRTHGTLESVNGPKAGSRGLTSLADTFEHVIEELLDEDQKVRPNEENNKDADLYTSRVMLSSQVPLEPPLLFLLEEYKNYLDAANMSMRVRRHSDPARRGELSVCDSISEWVTAADKKTAVDMSGGTVTVLEKVPVSKGQLKQYFYETKCNPMGYTKEGCRGIDKRHWNSQCRTTQSYVRALTMDSKKRIGWRFIRIDTSCVCTLTIKRGR | –
dopaminergic | Pehrin A3: ligand of receptor tyrosine kinases EPHA2 and EPHA3 (protein, UniProt P52797 23-214, looked up) Ephrin-A3: QGPGGALGNRHAVYWNSSNQHLRREGYTVQVNVNDYLDIYCPHYNSSGVGPGAGPGPGGGAEQYVLYMVSRNGYRTCNASQGFKRWECNRPHAPHSPIKFSEKFQRYSAFSLGYEFHAGHEYYYISTPTHNLHWKCLRMKVFVCCASTSHSGEKPVPTLPQFTMGPNVKINVLEDFEGENPQVPKLEKSISG | –
